Assay results reported in US20190119388A1 (GREEN CROSS, published 2019).

Assays:
Assay in all cases: cell-based or functional assay
[1] = molecular target: epidermal growth factor receptor (EGFR) on gastric cancer cell lines NCI-N87, AGS and NUGC3 (UniProt P00533)
[2] = molecular target: T1, epidermal growth factor receptor (EGFR) on gastric cancer cell lines NCI-N87, AGS and NUGC3 (UniProt P00533 25-1210, limits assumed)
[3] = molecular target: T1, epidermal growth factor receptor (EGFR) …; remark: listed apart in the source
[4] = molecular target: T1, epidermal growth factor receptor (EGFR) …; remark: listed apart in the source
[5] = molecular target: T1, epidermal growth factor receptor (EGFR) …; remark: listed apart in the source
[6] = molecular target: T1, epidermal growth factor receptor (EGFR) …; remark: listed apart in the source
[7] = molecular target: T1, epidermal growth factor receptor (EGFR) …; remark: listed apart in the source

## TGF-α (transforming growth factor-α) (from UniProt P01135 40-89) (ligand)
[1]
  increase of cell invasion (NUGC3, TGF-α 10 ng/ml): 1.7 fold
  increase of cell invasion (NUGC3, TGF-α 20 ng/ml): 1.9 fold
  increase of cell invasion (NUGC3, TGF-α 50 ng/ml): 1.9 fold
  increase of invasion against control (AGS, TGF-α 10 ng/ml): 1.8 fold
  increase of invasion against control (AGS, TGF-α 20 ng/ml): 1.8 fold
  increase of invasion against control (AGS, TGF-α 50 ng/ml): 1.9 fold

## AREG (amphiregulin) (from UniProt P15514 101-198) (ligand)
[1]
  increase of cell invasion (NUGC3, AREG 200 ng/ml): 1.3 fold
  increase of cell invasion (NUGC3, AREG 500 ng/ml): 1.5 fold

## HB-EGF (heparin binding-EGF-like growth factor) (from UniProt Q99075 63-148) (ligand)
[1]
  increase of cell invasion (NUGC3, HB-EGF 10 ng/ml): 2.3 fold
  increase of cell invasion (NUGC3, HB-EGF 20 ng/ml): 3.5 fold
  increase of cell invasion (NUGC3, HB-EGF 50 ng/ml): 4.8 fold
  increase of invasion against control (AGS, HB-EGF 10 ng/ml): 4.1 fold
  increase of invasion against control (AGS, HB-EGF 20 ng/ml): 4.5 fold
  increase of invasion against control (AGS, HB-EGF 50 ng/ml): 3.9 fold

B1: GC1118 (antibody, human IgG1, kappa, V domains shown)
VH: EVQLVESGGGVVQPGGSLRLSCAASGFTFSDYDMSWIRQAPGKGLEWVSGILGGSERSYYRDSVKGRFTISRDNSRKTLYLQMNSLRAEDTAVYYCARHGSPGYTLYAWDYWGQGTTVTVSS
VL: DIVMTQTPLSLPVTPGEPASISCRSNQDLTHSNGNTYLEWYLQKPGQSPRLLIYKVSNRFSGVPDRFSGSGAGTDFTLRISRVEAEDVGVYYCMQGTHWPWTFGQGTKVDIKR
[2]
  invaded cells relative to AREG alone, % of OD (AGS, AREG 1,000 ng/ml, antibody 1 µg/ml), Average (%): 55.4%
  invaded cells relative to AREG alone, % of OD (AGS, AREG 1,000 ng/ml, antibody 1 µg/ml), set 1-1: 55.3%
  invaded cells relative to AREG alone, % of OD (AGS, AREG 1,000 ng/ml, antibody 1 µg/ml), set 1-2: 61.3%
  invaded cells relative to AREG alone, % of OD (AGS, AREG 1,000 ng/ml, antibody 1 µg/ml), set 2-1: 51.8%
  invaded cells relative to AREG alone, % of OD (AGS, AREG 1,000 ng/ml, antibody 1 µg/ml), set 2-2: 53.1%
[3]
  invaded cells relative to TGF-α alone, % of OD (AGS, TGF-α 20 ng/ml, antibody 1 µg/ml), Average (%): 44.1%
  invaded cells relative to TGF-α alone, % of OD (AGS, TGF-α 20 ng/ml, antibody 1 µg/ml), set 1-1: 45.1%
  invaded cells relative to TGF-α alone, % of OD (AGS, TGF-α 20 ng/ml, antibody 1 µg/ml), set 1-2: 41.6%
  invaded cells relative to TGF-α alone, % of OD (AGS, TGF-α 20 ng/ml, antibody 1 µg/ml), set 2-1: 31.2%
  invaded cells relative to TGF-α alone, % of OD (AGS, TGF-α 20 ng/ml, antibody 1 µg/ml), set 2-2: 33.8%
  invaded cells relative to TGF-α alone, % of OD (AGS, TGF-α 20 ng/ml, antibody 1 µg/ml), set 3-1: 57.9%
  invaded cells relative to TGF-α alone, % of OD (AGS, TGF-α 20 ng/ml, antibody 1 µg/ml), set 3-2: 54.8%
[4]
  invaded cells relative to HB-EGF alone, % of OD (AGS, HB-EGF 20 ng/ml, antibody 1 µg/ml), Average (%): 49.6%
  invaded cells relative to HB-EGF alone, % of OD (AGS, HB-EGF 20 ng/ml, antibody 1 µg/ml), set 1-1: 50.6%
  invaded cells relative to HB-EGF alone, % of OD (AGS, HB-EGF 20 ng/ml, antibody 1 µg/ml), set 1-2: 56.8%
  invaded cells relative to HB-EGF alone, % of OD (AGS, HB-EGF 20 ng/ml, antibody 1 µg/ml), set 2-1: 57.7%
  invaded cells relative to HB-EGF alone, % of OD (AGS, HB-EGF 20 ng/ml, antibody 1 µg/ml), set 2-2: 64.2%
  invaded cells relative to HB-EGF alone, % of OD (AGS, HB-EGF 20 ng/ml, antibody 1 µg/ml), set 3-1: 33.3%
  invaded cells relative to HB-EGF alone, % of OD (AGS, HB-EGF 20 ng/ml, antibody 1 µg/ml), set 3-2: 34.9%
[5]
  invaded cells relative to TGF-α alone, % of OD (NUGC3, TGF-α 50 ng/ml, antibody 1 µg/ml), Average (%): 32.5%
  invaded cells relative to TGF-α alone, % of OD (NUGC3, TGF-α 50 ng/ml, antibody 1 µg/ml), set 1-1: 31.5%
  invaded cells relative to TGF-α alone, % of OD (NUGC3, TGF-α 50 ng/ml, antibody 1 µg/ml), set 1-2: 27.3%
  invaded cells relative to TGF-α alone, % of OD (NUGC3, TGF-α 50 ng/ml, antibody 1 µg/ml), set 2-1: 31.4%
  invaded cells relative to TGF-α alone, % of OD (NUGC3, TGF-α 50 ng/ml, antibody 1 µg/ml), set 2-2: 30%
  invaded cells relative to TGF-α alone, % of OD (NUGC3, TGF-α 50 ng/ml, antibody 1 µg/ml), set 3-1: 36.4%
  invaded cells relative to TGF-α alone, % of OD (NUGC3, TGF-α 50 ng/ml, antibody 1 µg/ml), set 3-2: 38.3%
[6]
  invaded cells relative to HB-EGF alone, % of OD (NUGC3, HB-EGF 50 ng/ml, antibody 1 µg/ml), Average (%): 39.2%
  invaded cells relative to HB-EGF alone, % of OD (NUGC3, HB-EGF 50 ng/ml, antibody 1 µg/ml), set 1-1: 18.8%
  invaded cells relative to HB-EGF alone, % of OD (NUGC3, HB-EGF 50 ng/ml, antibody 1 µg/ml), set 1-2: 21%
  invaded cells relative to HB-EGF alone, % of OD (NUGC3, HB-EGF 50 ng/ml, antibody 1 µg/ml), set 2-1: 57.7%
  invaded cells relative to HB-EGF alone, % of OD (NUGC3, HB-EGF 50 ng/ml, antibody 1 µg/ml), set 2-2: 64.2%
  invaded cells relative to HB-EGF alone, % of OD (NUGC3, HB-EGF 50 ng/ml, antibody 1 µg/ml), set 3-1: 41.7%
  invaded cells relative to HB-EGF alone, % of OD (NUGC3, HB-EGF 50 ng/ml, antibody 1 µg/ml), set 3-2: 31.9%
[7]
  invaded cells relative to AREG alone, % of OD (NUGC3, AREG 500 ng/ml, antibody 1 µg/ml), Average (%): 54.8%
  invaded cells relative to AREG alone, % of OD (NUGC3, AREG 500 ng/ml, antibody 1 µg/ml), set 1-1: 40.2%
  invaded cells relative to AREG alone, % of OD (NUGC3, AREG 500 ng/ml, antibody 1 µg/ml), set 1-2: 50.7%
  invaded cells relative to AREG alone, % of OD (NUGC3, AREG 500 ng/ml, antibody 1 µg/ml), set 2-1: 59.8%
  invaded cells relative to AREG alone, % of OD (NUGC3, AREG 500 ng/ml, antibody 1 µg/ml), set 2-2: 59.6%
  invaded cells relative to AREG alone, % of OD (NUGC3, AREG 500 ng/ml, antibody 1 µg/ml), set 3-1: 62.4%
  invaded cells relative to AREG alone, % of OD (NUGC3, AREG 500 ng/ml, antibody 1 µg/ml), set 3-2: 56.1%
